Target: HaWRI1_DBD (6-His-TRX-WRI1_DBD) (Helianthus annuus (CAS-6 line), UniProt X2BZR1 51-229)
Experiment: EMSA; polydIdC; 20 mM Tris-HCl pH 8.0, 250 mM NaCl, 2 mM MgCl2, 1% glycerol, 1 mM DTT, 1 mg/mL BSA, 30 min room temperature, gels at 4 °C; DIG EMSA plus 0.05 µg/µL polydIdC
Conditions: protein: recombinant; tags: N-terminal 6xHis-thioredoxin fusion; label: digoxigenin; blunt

Sequence of HaWRI1_DBD (6-His-TRX-WRI1_DBD) (X2BZR1 entry or part of it): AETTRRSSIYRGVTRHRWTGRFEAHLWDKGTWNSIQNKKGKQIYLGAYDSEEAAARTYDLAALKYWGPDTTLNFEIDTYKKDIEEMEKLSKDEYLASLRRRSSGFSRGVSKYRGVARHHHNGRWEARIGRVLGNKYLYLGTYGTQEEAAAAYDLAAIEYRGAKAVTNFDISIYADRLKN

B1: FATA1 AW box 24 bp (dsDNA)
DNA 1: CAGTCCTCGTGCATATCGGAGTCT
DNA 2: AGACTCCGATATGCACGAGGACTG
B1: binds.

Source: PMC9002759, “The Sunflower WRINKLED1 Transcription Factor Regulates Fatty Acid Biosynthesis Genes through an AW Box Binding Sequence with a Particular Base Bias”
